Results as given in the supplement of paper PMC9170038.

Tested on: MS2 coat protein
Assay: apparent KD of MS2 coat protein; designed switch direction (-1 OFF switch, 1 ON switch): 1; higher = weaker reporter binding
Summary of the method: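 On Illumina chips, designed RNA switches with common flanks were made by stalled E. coli RNA polymerase. Titrations with SNAP-549-labelled MS2 coat protein, doubling from 0.7 or 1.5 nM to 3 µM, were done with no input, with 200 uM small-molecule ligand, or with an oligonucleotide input. Apparent KD is the median per design over clusters, from curve fits of normalised cluster fluorescence.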

[1] = input ligand: microRNA oligo, concentration not stated
[2] = Eterna round: R95, input ligand: FMN 200 uM
[3] = Eterna round: R95, input ligand: microRNA oligo, concentration not stated
[4] = Eterna round: R95, input ligand: none

| Sequence | apparent KD of MS2 coat protein (input ligand: FMN 200 uM) [nM] | apparent KD of MS2 coat protein [1] [nM] | apparent KD of MS2 coat protein (input ligand: none) [nM] | apparent KD of MS2 coat protein [2] [nM] | apparent KD of MS2 coat protein [3] [nM] | apparent KD of MS2 coat protein [4] [nM] |
| --- | --- | --- | --- | --- | --- | --- |
| GGAGCCAAGGCAGGAUAUUCAUAUUAAUAACACAUGAGGAUCACCCAUGUGGCCAGAAGGCCAAGGGAGAAGGGCCAUGGCUCG [Xeonanis - 13 mod11] (Eterna round: R96, puzzle: Same State NG 2) | 22.1 | 65.4 | 159 |  |  |  |
| UGUUGUAUUACAGGAUAUCUAUUAUUUUUGUUUAGAGAAGGGUAUUCACAUGAGGAUCACCCAUGUAUAUACGAGGAAGUUGUG [JMF's solution 24] (Eterna round: R96, puzzle: Same State NG 1) |  | 37.6 |  |  |  |  |
| GAGUGGCGAUUAGGAUAUACAGUGAUAAUGAUAGUAGAAGGAAUUGACAUGAGGAUCACCCAUGUAGGACUAAUCCAGAGAGAG [Parity 30 - Jieux - Same State NG 1] (Eterna round: R96, puzzle: Same State NG 1) |  | 57 |  |  |  |  |
| AAACUGGAGGACAAGGAUAUGUGCUCUACGACAUGAGGAUCACCCAUGUGAGACGUAGUAGUGAAACAGAAGGUGUCCUAUUGUA [Tiarri] (Eterna round: R96, puzzle: Same State 2) |  | 14.2 |  |  |  |  |
| GAGAGAUGGUUAGGAUAUUCGGUGAUAAUGAUAGAAGAAGGAACUGACAUGAGGAUCACCCAUGUGGGAAUAAUCCAGAGAGAG [Parity 20 - Jieux - Same State NG 1] (Eterna round: R96, puzzle: Same State NG 1) | 103 | 85 | 107 |  |  |  |
| AUUUAACAAGCUUUUUGCUCGUCUUAUAAACAUGAGGAUCACCCAUGUAAUAGCGUGAGAGUAAUUAUAUAAAUAAU [JMF 86] (puzzle: Sensor for hsa-mir-208a) |  |  |  | 16.4 | 43 | 15.4 |
| ACGCAGCUGGGUGAGGAUAUCGGUGGUACUACAUGAGGAUCACCCAUGUCCGAAGCUCGGACCUCCGAGAAGGCGCCCGGCUGCG [Soinraesar Omei Mod 3] (puzzle: Same State 2) |  |  |  |  | 184 |  |
| CUAUUAGGAUGAGGAUAUGCAGAGGAUCACCCUGUAGAAGGCAAUAGAUGAGGAUAUGCAGAGGAUCACCCUGUAGAAGGCAAC [pwkr ssNG DX.3] (Eterna round: R96, puzzle: Same State NG 1) | 423 | 98.9 | 177 |  |  |  |
| UUGGGUUUGCGAGGAUAUCGUUUGUGAUUUGAUCGAGAAGGCGCUAUUUAAAUUAUUUUAACAUUACAUGAGGAUCACCCAUGU [JR_SSNG1_Sub022] (Eterna round: R96, puzzle: Same State NG 1) |  | 14.8 |  |  |  |  |
| UGGCUGGUGCUAGGAUAUGCAUGAGGCAUCCUCGUAGAAGGAGCACGACAUGAGGAUCACCCAUGUAGCCGUCCGUAGACGGCU [salish99_SSNG1_r04_010] (Eterna round: R96, puzzle: Same State NG 1) | 673 | 348 | 1060 |  |  |  |
| AGACACAUGAGGAUCACCCAUGUUACGAGCUUAGCUCGGACACAGGAUAUCCGGUCCUAGAGACCGGAGAAGGGUGGCUGAAAA [Zara MOD2] (Eterna round: R96, puzzle: Same State NG 3) | 728 | 212 | 587 |  |  |  |
| AAAUAAAACACAGGAUAUGCAACCAAUACGGCGGCAGAAGGGUGAGACAUGAGGAUCACCCAUGUACACGUCCCACAGACGUGC [Onlaa] (Eterna round: R96, puzzle: Same State NG 1) | 387 | 243 | 175 |  |  |  |
| UUGUUUUGAAAUUAACAUGAGGAUCACCCAUGUCUUGACACAGAGGAUAUACAUGAAUGUAGGUAGUAGAAGGCUGUUUAGUGU [JR_SSNG3_Sub098] (Eterna round: R96, puzzle: Same State NG 3) |  | 57.2 |  |  |  |  |
| UUAGUCAUGUAAGGAUAUGCAGCCGAAACGGCUGCAGAAGGUACUAUAAUUACAUGAGGAUCACCCAUGUUAUAAAAUUUAUAU [Mat - Same State NG 1 - JL mod - D62] (Eterna round: R96, puzzle: Same State NG 1) | 23.4 | 28.7 | 41.2 |  |  |  |
| GCCGCGUUUCGCGCCUACAUGAGGAUCACCCAUGUUUGUAGGCAGGAUAUCGUCCGCUCUGCGGGCGAGAAGGGCUGUUGUGGU [salish99_SSNG3_R04_024] (Eterna round: R96, puzzle: Same State NG 3) | 65.6 | 58.1 | 86.7 |  |  |  |
| GACAAUCUAUCUGAGGAUAUCAUGAAUAAAACAUGAGGAUCACCCAUGUGCAGGAGAACUGCAAAUGAGAAGGCAGAUAGAUUGG [Mat - Same State 2 - Mod - D10] (puzzle: Same State 2) |  |  |  | 10 | 37.2 | 26.9 |

| Sequence | apparent KD of MS2 coat protein (input ligand: FMN 200 uM) [nM] | apparent KD of MS2 coat protein [1] [nM] | apparent KD of MS2 coat protein (input ligand: none) [nM] | apparent KD of MS2 coat protein [2] [nM] | apparent KD of MS2 coat protein [3] [nM] | apparent KD of MS2 coat protein [4] [nM] |
| --- | --- | --- | --- | --- | --- | --- |
| CAGCGCUGUCGAGAGGAUAUGCGGUGAUGGACAUGAGGAUCACCCAUGUUAGCGAUAGUAUUACGGUAGAAGGCUCUACAGCUGC [Soteed - 11] (puzzle: Same State 2) |  |  |  |  | 43.6 |  |
| AGUCCAGCCUGAGCUGGACAAAAGUAUGUACAUGAGGAUCACCCAUGUCAUGUACAAGCUUUUUGCUCGUUUUAAUA [Zipper 49 - 17] (puzzle: Sensor for hsa-mir-208a) |  |  |  | 424 | 33.8 | 517 |
| AGCUAUUAAUCAGGAUAUGGUCACAUGAGGAUCACCCAUGUAACGAUGAUAUAAUGUGGUCAAAACUAGAAGGGAUUGCUAACA [SameState NG2 #65] (Eterna round: R96, puzzle: Same State NG 2) | 341 | 216 | 290 |  |  |  |
| UUGCUCGUGUGAGGAUAUGCAGCCGUUUCGGCUGCAGAAGGUACUAUAAUACAUGAGGAUCACCCAUGUCUCUGUUGUUUUGUG [salish99_SSNG1_r04_929] (Eterna round: R96, puzzle: Same State NG 1) | 26.9 | 20.8 | 25.4 |  |  |  |
| GUUAAACAUGAGGAUCACCCAUGUCAUCUAAGUCGAGGAUAUGGGAAUUAAUUAAUUAAACCAGAAGGCGAAAAUG [Mat - Same State 1 - D96] (puzzle: Same State 1) |  |  |  | 39 | 174 | 126 |
| UGUUGUAUUACAGGAUAUCUAGUAUUUUUAUUAAGAGAAGGGUAUUCACAUGAGGAUCACCCAUGUAUAUACGAGGAAGUUGUG [JMF's solution 54] (Eterna round: R96, puzzle: Same State NG 1) |  | 33.7 |  |  |  |  |
| GAGUAGUUGGGAGGAUAUCGAUUGUUAUAGAAUCGAGAAGGUUUUAACAUGAGGAUCACCCAUGUAGGACUAUUCCUGUGUAUC [Parity 73 - Jieux - Same State NG 1] (Eterna round: R96, puzzle: Same State NG 1) | 127 | 68.5 | 107 |  |  |  |
| GAGUGGAGGAGAGGAUAUACAUUGAUAAUCACUGUAGAAGGUUCUAACAUGAGGAUCACCCAUGUAGGACUAUUCCUGAGAGUU [Parity 52 - Jieux - Same State NG 1] (Eterna round: R96, puzzle: Same State NG 1) | 8.87 | 10.1 | 12.5 |  |  |  |
| GGGCCAGCCUGUGCUGGGCUUUAGCAUGCACAUGAGGAUCACCCAUGUCGUGUACAUGCUUUUUGCUCGUCUUUAAA [Photon Torp-08] (puzzle: Sensor for hsa-mir-208a) |  |  |  | 80.2 | 17.4 | 84.1 |
| GGUCGGACUCAACAUGAGGAUCACCCAUGUGCGGAAACGCCAUAGGAUAUCUGUCCGAAAAGGUCAGAGAAGGGUGAACCGACC [Fiskers NG3ss - 66] (Eterna round: R96, puzzle: Same State NG 3) | 435 | 263 | 471 |  |  |  |
| GUCGGUCUGUCGUGCUGUGGUGAUAGUUAACAUGAGGAUCACCCAUGUUGCUUUCGGGUCGUUGGGAGUUUUUUUCG [Modxample 121 - Jieux - Sensor for bsa-mir-208a] (Eterna round: R96, puzzle: Sensor for hsa-mir-208a) | 63.1 | 43.9 | 64 |  |  |  |
| GCCAUCGUAUGAGGAUAUGGCACCGAAACGGUGCCAGAAGGCAUGUCAAUUGACAUGAGGAUCACCCAUGUAUUAUCGAUGGCA [Mat - Same State NG 1 - JL mod - D89] (Eterna round: R96, puzzle: Same State NG 1) |  | 454 |  |  |  |  |
| AUUAAACAUGAGGAUCACCCAUGUCAACAAAGUCGAGGAUAUGGGCAAAUAAAAUAAGAACCAGAAGGCGAAUAUU [salish99_ss1_r3_080] (puzzle: Same State 1) |  |  |  | 38.5 | 407 | 180 |
| GGAGCCGGUACUGAGGAUAUUCGUAUUAAAACAUGAGGAUCACCCAUGUAGGCCAGAAGGCCUUGGGAGAAGGCAGACCAGCUCG [Atgexeedri - 5] (puzzle: Same State 2) |  |  |  | 14.3 | 26 | 40.5 |
| CUAACAACAGGUUGCAGUGCUCGUCUCUAACAUGAGGAUCACCCAUGUAAUAGCCCGGUGGAAGCGCUCGGGUCACC [Tearor] (puzzle: Sensor for hsa-mir-208a) |  |  |  | 28.3 | 34.5 | 30.9 |
| UGUUGUAUUACAGGAUAUCUAUUAGUUUGAUUUAGAGAAGGGUAUUCACAUGAGGAUCACCCAUGUAUAUACGAGGAAGUUGUG [JMF's solution 94] (Eterna round: R96, puzzle: Same State NG 1) |  | 41.4 |  |  |  |  |
